T1: human IL-1α (human, UniProt P01583 113-271)
T1 construct: also called IL-1alpha; hIL-1α
T1 sequence (looked up): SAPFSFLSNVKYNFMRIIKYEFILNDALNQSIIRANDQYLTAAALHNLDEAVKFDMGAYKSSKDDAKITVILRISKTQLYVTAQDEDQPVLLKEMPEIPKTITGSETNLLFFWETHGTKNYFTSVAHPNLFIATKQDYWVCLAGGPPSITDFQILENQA

T2: human IL-1α (human, UniProt P01583 113-271)
T2 sequence (looked up): T1 sequence (looked up)

B1: ABT1-6-23 (other)
VH: EVQLLESGGGLVQPGGSLRLSCAASGFTFVRYDMAWVRQAPGKGLEWVSSIYKSGALTSYADSVKGRFTISRDNSKNTLYLQMNSLRAEDTAVYYCAKGWASFDYWGQGTLVTVSS
notes: VH dAb
B2: ABT1-86 (other)
VH: EVQLLESGGGLVQPGGSLRLSCAASGFTFDRYIMAWVRQAPGKGLEWVSSITPSGAATYYADSVKGRFTISRDNSKNTLYLQMNSLRAEDTAVYYCAEEPADRYSTWTFDYWGQGTLVTVSS
notes: VH dAb
B3: ABT1-98 (other)
VH: EVQLLESGGGLVQPGGSLRLSCAASGFTFDGYIMSWVRQAPGKGLEWVSTISPLGSVTYYADSVKGRFTISRDNSKNTLYLQMNSLRAEDTAVYYCAKKGPWFDYWGQGTLVTVSS
notes: VH dAb
B4: ABT1-96 (other)
VH: EVQLLESGGGLVQPGGSLRLSCAASGFTFNQYNMFWVRQAPGKGLEWVSVISGSGRFTYYADSVKGRFTISRDNSKNTLYLQMNSLRAEDTAVYYCAKGWWRRDPPFDYWGQGTLVTVSS
notes: VH dAb
B5: ABT1-95 (other)
VL: DIQMTQSPSSLSASVGDRVTITCRASQPIHGNLRWYQQKPGKAPKLLIYNISNLQSGVPSRFSGSGSGTDFTLTISSLQPEDFATYYCQQGYRWPVTFGQGTKVEIKR
notes: VK dAb
B6: ABT1-122 (other)
VL: DIQMTQSPSSLSASVGDRVTITCRASQPIWTELNWYQQKPGKAPKLLIYGSSSLQSGVPSRFSGSGSGTDFTLTISSLQPEDFATYYCQQFAYFPATFGQGTKVEIKR
notes: VK dAb
B7: ABT1-141 (other)
VL: DIQMTQSPSSLSASVGDRVTITCRASQWIQKQLAWYQQKPGKAPKLLIYSSSYLQSGVPSRFSGSGSGTDFTLTISSLQPEDFATYYCQQHLRVPFTFGQGTKVEIKR
notes: VK dAb
B8: Fab ABT1-141/ABT2-65 (Fab, V domains shown)
VH: EVQLLESGGGLVQPGGSLRLSCAASGFTFEDYQMGWVRQAPGKGLEWVSSISAMGNRTYYADSVKGRFTISRDDSKNTLYLQMNSLRAEDTAVYYCAKNLVRTQSKMWMFDYWGQGTLVTVSS
VL: DIQMTQSPSSLSASVGDRVTITCRASQWIQKQLAWYQQKPGKAPKLLIYSSSYLQSGVPRFSGSGSGTDFTLTISSLQPEDFATYYCQQHLRVPFTFGQGTKVEIKR
B9: Fab ABT1-122/ABT2-65 (Fab, V domains shown)
VH: B8 VH
VL: DIQMTQSPSSLSASVGDRVTITCRASQPIWTELNWYQQKPGKAPKLLIYGSSSLQSGVPRFSGSGSGTDFTLTISSLQPEDFATYYCQQFAYFPATFGQGTKVEIKR
B10: Fab ABT1-95/ABT2-13 (Fab, V domains shown)
VH: EVQLLESGGGLVQPGGSLRLSCAASGFTFRDYVMYWARQAPGKGLEWVSRIDPMGSSTYYADSVKGRFTISRDNSKNTLYLQMNSLRAEDTAVYYCAKPEGNFDYWGQGTLVTVSS
VL: B5 VL
B11: Fab ABT1-6-23/ABT2-46 (Fab, V domains shown)
VH: EVQLLESGGGLVQPGGSLRLSCAASGFTFVRYDMAWVRQAPGKGLEWVSSIYKSGALTSYDSVKGRFTISRDNSKNTLYLQMNSLRAEDTAVYYCAKGWASFDYWGQGTLVTVSS
VL: DIQMTQSPSSLSASVGDRVTITCRASQSIIEWLSWYQQKPGKAPKLLIYRTSVLQSGVPSRFSGSGSGTDFTLTISSLQPEDFATYYCQQNEFWPFTFGQGTKVEIKR
B12: Fab ABT1-6-23/ABT2-13 (Fab, V domains shown)
V domain 1: B11 VH
V domain 2: B10 VH
B13: Fab ABT1-96/ABT2-46 (Fab, V domains shown)
VH: EVQLLESGGGLVQPGGSLRLSCAASGFTFNQYNMFWVRQAPGKGLEWVSVISGSGRFTYADSVKGRFTISRDNSKNTLYLQMNSLRAEDTAVYYCAKGWWRRDPPFDYWGQGTLVTVSS
VL: B11 VL
B14: Fab ABT1-98/ABT2-76 (Fab, V domains shown)
VH: B3 VH
VL: B11 VL with I30D, E31R, S34A, T51G, V53I, N91V, E92A, F96P
B15: ABT1-95-A3 (other)
VL: DIQMTQSPSSLSASVGDRVTITCRASKPGVRNMRWYQQKPGKAPKLLIYSVSYLEPGVPSRFSGSGSGTDFTLTISSLQPEDFATYHCLQGYRWPPTFGQGTKVEIKR
B16: ABT1-95-181 (other)
VL: B15 VL with G29I
B17: ABT1-95-A6 (other)
VL: B15 VL with S50A, V51K, L89K, P96V, T97Q
B18: ABT1-95-A5 (other)
VL: B15 VL with K27R, P28T, G29P, M33L, V51R, Y53F

Where a chain is given by its changes, count along the chain named.

Data on 18 molecules can be found in patent US20090291081A1 (AbbVie / Abbott, published 2009).

The first test has as its target T1, human IL-1α. Kind of test: Table 62 KD; BIAcore presumed. Background: Surface plasmon resonance follows binding to a sensor surface in real time, without labels.
B1 gave a Kd of 6 nM.

Another test has as its target T1, human IL-1α. The experiment in a line: BIAcore (SPR).
Molecule B2 had a Kd of 110 nM.
B3 gave a Kd of 13 nM.
The molecule B4 came in with a dissociation constant (Kd) of 1.1 nM.
Molecule B5 yielded a Kd of 45 nM.
The same measure, in the same setting: in the case of B6 it was 42 nM.
Still for that read-out and setting: for B7 the value was 300 nM.
With B1, the affinity, expressed as Kd, was 61 nM.

The target of a further test is T1, human IL-1α. The experiment in a line: cell-based or functional assay.
For the molecule B2, the “MRC5 ND50” value was found to be 900 nM.
On to B3, for which the “MRC5 ND50” value was 30 nM.
As for B4, the “MRC5 ND50” value was determined as 11 nM.
In the case of B5, the “MRC5 ND50” value is 800 nM.
Still for that read-out and setting: in the case of B6 it was 50 nM; in that of B7, 50 nM.

Another test has as its target T1, human IL-1α. The experiment in a line: Table 62 IC50; RBA presumed.
B2 yielded an IC50 of 1000 nM.
The molecule B5 displayed an IC50 of 500 nM.
B6 registered an IC50 of 80 nM.
Same read-out and setting: in the case of B1 it was 30 nM.

Another test concerns the target T2, human IL-1α. Kind of test: cell-based or functional assay.
Consider B8, for which the “Fab IL-1α ND10” value worked out at 80 nM.
On the same count and under the same terms, in the case of B9 it was 40 nM; in that of B10, 200 nM; in that of B11, 4 nM.
B12: the “Fab IL-1α ND10” value is 40 nM.
Still for that read-out and setting: for B13 the value was 6 nM; for B14, 100 nM.

For a further test, the target named is human IL-1β (human, UniProt P01584 117-269). The experiment in a line: cell-based or functional assay.
On to B8, for which the “Fab IL-1β ND10” value was 300 nM.
Still for that read-out and setting: for B9 the value was 1500 nM; for B10, 400 nM; for B11, 150 nM.
Turning to B12, the “Fab IL-1β ND10” value is greater than 500 nM.
The same measure, in the same setting: in the case of B13 it was 400 nM; in that of B14, 1500 nM.

Another test concerns the target T2, human IL-1α. The experiment in a line: cell-based or functional assay. This is another data set of the same source.
For the molecule B15, the “MRC5 ND50” value was 11 pM.
B16: the “MRC5 ND50” value stood at 14 pM.
The same measure, in the same setting: in the case of B17 it was 24 pM; in that of B18, 16 pM.

In a further test the target is T1, human IL-1α. Kind of test: cell-based or functional assay. This is another data set of the same source.
B2 showed an ND50 of 900 nM.
Consider B3, for which the ND50 was less than 100 nM.
Molecule B4 yielded an ND50 of 17 nM.
On the same count and under the same terms, in the case of B5 it was 800 nM; in that of B6, 100 nM; in that of B7, 142 nM.
Still for that read-out and setting: for B1 the value was 30 nM.

The Kd is the free concentration of one partner at which half of the binding sites on the other are occupied at equilibrium, for simple one-to-one binding. A low value points to tighter binding. The term IC50 denotes the concentration at which inhibition is half-maximal. A low value points to greater potency in that assay.
